Experimental data from the supplement of paper PMC12855868.

B1: library; numbered along this chain (parent)
chain: MAAAGGARLLRAASAVLGGPAGRWLHHAGSRAGSSGLLRNRGPGGSAEASRSLSVSARARSSSEDKITVHFINRDGETLTTKGKVGDSLLDVVVENNLDIDGFGACEGTLACSTCHLIFEDHIYEKLDAITDEENDMLDLAYGLTDRSRLGCQICLTKSMDNMTVRVPETVADARQSIDVGKTS

Variants of: B1
Assay: scaled log2 fold change in cell abundance, elesclomol vs control (0 = silent mean, 1 = nonsense mean) (scaled log2 ratio); higher = higher viability under elesclomol (loss of FDX1 cuproptosis function)
Conditions: glucose 10 mM
Protocol: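 Deep mutational scan of full-length human FDX1: a pooled saturation-mutagenesis ORF library (every residue 2-184 mutated to all 19 amino acids plus stop, and silent codons where available) was expressed by lentivirus in FDX1-knockout ABC1 (14 days) or HEK293T (11 days) cells grown with elesclomol (ES) or DMSO control. Variant abundance came from ORF sequencing. The log2 fold change (ES vs control, mean of duplicates) was centred on the silent-variant mean (0) and scaled to the nonsense-variant mean (1). Higher values mean greater viability under ES, i.e. loss of FDX1 function in cuproptosis.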

[1] = with ABC1 FDX1 KO, elesclomol 5 nM, 14 days
[2] = with HEK293T FDX1 KO, elesclomol 40 nM, 11 days
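Note: variant abundance is its share of total variant reads in each endpoint sample, from next-generation sequencing of the integrated ORF PCR-amplified out of genomic DNA.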

Variant | scaled log2 fold change [1] | scaled log2 fold change [2]
L98G | 0.225 | 0.327
L98M | 0.0485 | 0.18
L98N | 0.309 | 0.504
L98D | 0.341 | 0.871
L98H | 0.186 | 0.86
L98F | -0.0232 | -0.902
L98K | 0.356 | 0.0251
L98E | 0.00205 | 0.172
L98I | -0.0119 | -0.482
L98C | -0.21 | -0.505
L98A | -0.194 | -1.06
V93E | 0.231 | -0.85
V93P | 0.924 | 0.209
V93S | 0.115 | -0.534
V93Y | -0.0809 | 1.12
V93G | 0.574 | -0.293
V93M | 0.416 | 0.244
V93I | 0.123 | -0.612
V93F | 0.266 | -0.377
V93H | -0.124 | -0.875
V93N | 0.524 | 0.217
V93A | -0.15 | 1.27
V93T | -0.217 | -0.372
V93L | 0.0816 | 0.422

Variant | scaled log2 fold change [1] | scaled log2 fold change [2]
V93C | -0.0745 | 0.258
V93Q | 0.0948 | -0.698
V93R | 0.275 | 0.16
V93K | -0.498 | 
V93D | 0.877 | 0.496
V93W | 0.155 | 0.488
N97P | -0.344 | -0.674
N97T | -0.0494 | 0.415
N97D | 0.0523 | -0.622
N97R | -0.00904 | 
N97W | 0.133 | -0.218
N97Y | -0.364 | -0.135
N97G | 0.132 | -0.242
N97M | 0.195 | -0.11
N97K | 0.149 | 0.739
N97I | 0.125 | -0.93
N97Q | -0.273 | 0.204
N97E | -0.211 | -1.28
N97S | -0.104 | 0.254
N97V | -0.176 | -0.221
N97F | 0.103 | -0.943
N97C | -0.382 | -0.308
N97H | -0.355 | -0.619
N97A | 0.142 | 0.975

Variant | scaled log2 fold change [1] | scaled log2 fold change [2]
N97L | -0.931 | 
V94L | 0.0554 | -0.336
V94W | 0.0681 | 0.96
V94R | -0.258 | 1
V94F | -0.376 | -0.411
V94D | -0.313 | 
V94A | 0.0221 | 0.0839
V94Y | -0.0972 | 0.515
V94P | 0.617 | 0.378
V94I | -0.52 | 0.00216
V94C | -0.491 | 0.199
V94E | 0.00926 | -0.058
V94M | -0.224 | 1.17
V94S | -0.223 | -1
V94H | -0.328 | 0.317
V94G | -0.377 | 
V94K | -0.573 | -0.482
V94Q | 0.235 | -0.226
V94T | -0.0231 | 
V94N | -0.345 | -1.27
E95N | 0.2 | 
E95R | -0.296 | -0.0027
E95Y | -0.143 | -0.228
E95Q | 0.0772 | -0.398

Variant | scaled log2 fold change [1] | scaled log2 fold change [2]
E95C | -0.0222 | 
E95I | 0.142 | -0.228
E95W | 0.0294 | -0.33
E95P | 0.178 | -0.222
E95A | 0.102 | -0.337
E95H | -0.106 | -0.636
E95V | 0.0731 | -0.123
E95K | 0.0162 | -0.042
E95G | -0.0448 | 0.982
E95D | 0.126 | 0.1
E95F | -0.339 | -0.0798
E95T | -0.37 | 
E95M | 0.0861 | -0.356
E95S | 0.146 | 0.071
E95L | -0.168 | -0.709
V92I | -0.0115 | 0.336
V92N | 0.121 | 0.904
V92K | 0.913 | 0.724
V92T | -0.145 | 
V92Q | -1.03 | 0.183
V92L | 0.019 | 
V92P | 0.511 | 0.131
V92R | 1.1 | 0.379
V92W | 0.354 | -0.298

Variant | scaled log2 fold change [1] | scaled log2 fold change [2]
V92M | -0.0956 | 0.391
V92H | 0.295 | 0.314
V92S | 0.501 | -0.213
V92Y | 0.0368 | -0.087
V92G | 0.459 | 0.237
N96D | 0.104 | 0.22
N96A | -0.307 | 1.03
N96F | 0.145 | -0.464
N96Q | -0.22 | 0.0675
N96H | 0.245 | 
N96C | -0.324 | -0.592
N96M | 0.283 | -0.778
N96T | -0.0877 | -0.163
N96S | -0.155 | -0.272
N96L | 0.0905 | 0.033
N96V | 0.307 | 0.567
N96Y | -0.25 | -0.153
N96I | 0.329 | 0.221
N96E | 0.241 | -0.435
N96K | -0.0525 | -0.121
N96G | 0.111 | 0.179
N96W | -0.0659 | -0.145
N96P | 0.423 | -0.187
N96R | 0.204 | -0.0627
